What was measured:
GST-FOXM1 DBD [1] = target: T1, GST-FOXM1 DBD (UniProt Q08050 225-355); experiment: fluorescence polarization; EMSA and FP: 20 mM Tris-Cl, 50 mM KCl, 10% glycerol, 0.5 mM EDTA, 0.2 mM DTT, pH 7.6, 30 min on ice; EMSA 50 nM probe, FP 10 nM probe (50 nM in Fig. 1D legend); conditions: protein: recombinant, tags: N-terminal GST (pGEX-4T-1)
T1 sequence: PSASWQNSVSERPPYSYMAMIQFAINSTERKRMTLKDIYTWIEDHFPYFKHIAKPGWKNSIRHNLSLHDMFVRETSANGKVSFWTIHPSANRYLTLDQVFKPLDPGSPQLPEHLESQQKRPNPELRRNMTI

His-FOXM1 full-length = target: T2, His-FOXM1 full-length (UniProt Q08050 1-763); experiment: as above; conditions: protein: recombinant, tags: C-terminal His6 (encoded by reverse primer S6)
T2 sequence: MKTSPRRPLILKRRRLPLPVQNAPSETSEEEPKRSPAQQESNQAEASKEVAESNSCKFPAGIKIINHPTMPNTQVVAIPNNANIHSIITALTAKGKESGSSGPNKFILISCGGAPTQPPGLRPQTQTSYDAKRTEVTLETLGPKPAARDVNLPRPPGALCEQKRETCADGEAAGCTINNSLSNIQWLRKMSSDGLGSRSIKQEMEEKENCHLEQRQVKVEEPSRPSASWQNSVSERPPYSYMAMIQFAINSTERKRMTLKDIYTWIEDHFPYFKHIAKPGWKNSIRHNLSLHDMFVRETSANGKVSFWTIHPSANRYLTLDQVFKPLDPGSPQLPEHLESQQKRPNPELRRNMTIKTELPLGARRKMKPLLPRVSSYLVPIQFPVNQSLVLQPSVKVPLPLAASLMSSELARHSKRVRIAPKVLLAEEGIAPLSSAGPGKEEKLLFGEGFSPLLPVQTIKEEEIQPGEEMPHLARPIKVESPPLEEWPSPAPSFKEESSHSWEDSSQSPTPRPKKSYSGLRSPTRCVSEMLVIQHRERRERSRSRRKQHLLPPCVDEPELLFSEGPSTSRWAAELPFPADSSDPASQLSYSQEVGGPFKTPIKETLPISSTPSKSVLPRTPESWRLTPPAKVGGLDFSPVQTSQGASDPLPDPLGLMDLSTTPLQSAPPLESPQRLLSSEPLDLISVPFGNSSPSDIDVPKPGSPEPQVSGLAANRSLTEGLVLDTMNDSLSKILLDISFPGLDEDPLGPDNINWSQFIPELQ

GST-FOXM1 DBD [2] = target: T1, GST-FOXM1 DBD; experiment: EMSA; EMSA and FP: 20 mM Tris-Cl, 50 mM KCl, 10% glycerol, 0.5 mM EDTA, 0.2 mM DTT, pH 7.6, 30 min on ice; EMSA 50 nM probe, FP 10 nM probe (50 nM in Fig. 1D legend); conditions: protein: recombinant; tags: N-terminal GST (pGEX-4T-1); label: 5'-ROX
[3] = label: 5'-FAM on forward strand (hot) or none (cold), blunt
[4] = label: 5'-ROX (hot) or none (cold)

B1: FOXM1 dsDNA probe (dsDNA)
DNA 1: TTTGTTTATTTGTTTGTTTATTTG
DNA 2: CAAATAAACAAACAAATAAACAAA
Question: B1 was tested. Which Kd (GST-FOXM1 DBD [1]; [3]) did it give?
Answer: 543 ± 148 nM

Question: What about the Kd (His-FOXM1 full-length; [3]) of the same binder?
Answer: 214 ± 249 nM

Question: Does TCACTTAAAAAAAAAAAACTCATGAAAAAAAAAAAATCCTTT (ssDNA) [Control Apt] bind (GST-FOXM1 DBD [2])?
Answer: no binding

Question: Which Kd (GST-FOXM1 DBD [1]; [4]) does the source give for TCACTTCACACCGCATCTCTACGTCCGGTTGCGCTTTCCTTT (ssDNA) [FOXM1 Apt (C1)] here?
Answer: 64.8 ± 25.8 nM

Question: And the Kd (His-FOXM1 full-length; [4])?
Answer: 172 ± 26.6 nM

Question: Which Kd (His-FOXM1 full-length) does the source give for TCACTTCACACCGCATCTCTACGTCCGGTTGCGCTTTCCTTT (ssDNA, phosphorothioate internucleotide linkages) [M-FOXM1 Apt] here?
Answer: 63.9 ± 6.6 nM

— publication PMC5371818, “Suppression of FOXM1 Transcriptional Activities via a Single-Stranded DNA Aptamer Generated by SELEX”
